{"source": "paper PMC9605926", "about": "“Safety of [^177Lu]Lu-NeoB treatment: a preclinical study characterizing absorbed dose and acute, early, and late organ toxicity” (European Journal of Nuclear Medicine and Molecular Imaging, 2022)", "experiment": "Dosimetry: absorbed organ dose from biodistribution data (MIRD scheme, RADAR mouse phantom)", "format": "in vivo", "description": "Data obtained during the in vivo biodistribution studies were used to calculate the absorbed dose for each organ according to the MIRD-scheme. The time integrated activity concentration coefficients were determined by fitting exponential curves to the activity concentration data points at 1, 4, 24, 48, 96, and 168 h p.i. and integrating these curves over time. The least squares fitting analysis was performed with GraphPad Prism software. The S-values for lutetium-177 were based on the 24 g realistic RADAR mouse phantom. The standard organ weights of this model were used to convert from activity concentration to activity. With this model, the absorbed dose in most organs could be calculated. S-values for organs not included in the mouse model, such as adrenal glands and prostate, were determined with the spherical node model within the Olinda/EXM code.\nThe absorbed doses determined from the biodistribution assay were extrapolated to the dose the animals received during the radiotoxicity study. Here, the animals received 3 consecutive injections with a 7-day interval.", "key": {"[1]": {"conditions": "female, 3× 120 MBq/1200 pmol, extrapolated cumulative"}}}
{"smiles": "CC(C)CC(CC(C)C)NC(=O)[C@H](Cc1cnc[nH]1)NC(=O)CNC(=O)[C@@H](NC(=O)[C@H](C)NC(=O)[C@H](Cc1c[nH]c2ccccc12)NC(=O)[C@H](CCC(N)=O)NC(=O)[C@@H](Cc1ccccc1)NC(=O)COCC(=O)Nc1ccc(CNC(=O)CN2CCN(CC(=O)O)CCN(CC(=O)O)CCN(CC(=O)O)CC2)cc1)C(C)C", "note": "[[^177Lu]Lu-NeoB, metal not drawn]", "values": [{"measurement": "Absorbed dose adrenal glands", "setting": "female, 1× 120 MBq/1200 pmol", "value": 0.82, "unit": "Gy"}, {"measurement": "Absorbed dose brain", "setting": "female, 1× 120 MBq/1200 pmol", "value": 0.12, "unit": "Gy"}, {"measurement": "Absorbed dose colon wall", "setting": "female, 1× 120 MBq/1200 pmol", "value": 1.81, "unit": "Gy"}, {"measurement": "Absorbed dose heart wall", "setting": "female, 1× 120 MBq/1200 pmol", "value": 0.42, "unit": "Gy"}, {"measurement": "Absorbed dose kidneys", "setting": "female, 1× 120 MBq/1200 pmol", "value": 5.24, "unit": "Gy"}, {"measurement": "Absorbed dose liver", "setting": "female, 1× 120 MBq/1200 pmol", "value": 4.37, "unit": "Gy"}, {"measurement": "Absorbed dose lungs", "setting": "female, 1× 120 MBq/1200 pmol", "value": 0.62, "unit": "Gy"}, {"measurement": "Absorbed dose mammary fat pad", "setting": "female, 1× 120 MBq/1200 pmol", "value": 1.11, "unit": "Gy"}, {"measurement": "Absorbed dose osteogenic cells", "setting": "female, 1× 120 MBq/1200 pmol", "value": 0.07, "unit": "Gy"}, {"measurement": "Absorbed dose ovaries", "setting": "female, 1× 120 MBq/1200 pmol", "value": 0.53, "unit": "Gy"}, {"measurement": "Absorbed dose pancreas", "setting": "female, 1× 120 MBq/1200 pmol", "value": 3.30, "unit": "Gy"}, {"measurement": "Absorbed dose small intestine", "setting": "female, 1× 120 MBq/1200 pmol", "value": 1.80, "unit": "Gy"}, {"measurement": "Absorbed dose spleen", "setting": "female, 1× 120 MBq/1200 pmol", "value": 0.68, "unit": "Gy"}, {"measurement": "Absorbed dose stomach wall", "setting": "female, 1× 120 MBq/1200 pmol", "value": 1.31, "unit": "Gy"}, {"measurement": "Absorbed dose total body", "setting": "female, 1× 120 MBq/1200 pmol", "value": 0.65, "unit": "Gy"}, {"measurement": "Absorbed dose urinary bladder", "setting": "female, 1× 120 MBq/1200 pmol", "value": 0.05, "unit": "Gy"}, {"measurement": "Absorbed dose adrenal glands", "setting": "[1]", "value": 2.47, "unit": "Gy"}, {"measurement": "Absorbed dose brain", "setting": "[1]", "value": 0.35, "unit": "Gy"}, {"measurement": "Absorbed dose colon wall", "setting": "[1]", "value": 5.43, "unit": "Gy"}, {"measurement": "Absorbed dose heart wall", "setting": "[1]", "value": 1.27, "unit": "Gy"}, {"measurement": "Absorbed dose kidneys", "setting": "[1]", "value": 15.71, "unit": "Gy"}, {"measurement": "Absorbed dose liver", "setting": "[1]", "value": 13.11, "unit": "Gy"}, {"measurement": "Absorbed dose lungs", "setting": "[1]", "value": 1.87, "unit": "Gy"}, {"measurement": "Absorbed dose mammary fat pad", "setting": "[1]", "value": 3.34, "unit": "Gy"}, {"measurement": "Absorbed dose osteogenic cells", "setting": "[1]", "value": 0.21, "unit": "Gy"}, {"measurement": "Absorbed dose ovaries", "setting": "[1]", "value": 1.60, "unit": "Gy"}, {"measurement": "Absorbed dose pancreas", "setting": "[1]", "value": 9.89, "unit": "Gy"}, {"measurement": "Absorbed dose small intestine", "setting": "[1]", "value": 5.40, "unit": "Gy"}, {"measurement": "Absorbed dose spleen", "setting": "[1]", "value": 2.05, "unit": "Gy"}, {"measurement": "Absorbed dose stomach wall", "setting": "[1]", "value": 3.94, "unit": "Gy"}, {"measurement": "Absorbed dose total body", "setting": "[1]", "value": 1.95, "unit": "Gy"}, {"measurement": "Absorbed dose urinary bladder", "setting": "[1]", "value": 0.15, "unit": "Gy"}, {"measurement": "Absorbed dose adrenal glands", "setting": "male, 1× 40 MBq/400 pmol", "value": 0.58, "unit": "Gy"}, {"measurement": "Absorbed dose brain", "setting": "male, 1× 40 MBq/400 pmol", "value": 0.05, "unit": "Gy"}, {"measurement": "Absorbed dose colon wall", "setting": "male, 1× 40 MBq/400 pmol", "value": 0.81, "unit": "Gy"}, {"measurement": "Absorbed dose heart wall", "setting": "male, 1× 40 MBq/400 pmol", "value": 0.25, "unit": "Gy"}, {"measurement": "Absorbed dose kidneys", "setting": "male, 1× 40 MBq/400 pmol", "value": 2.00, "unit": "Gy"}, {"measurement": "Absorbed dose liver", "setting": "male, 1× 40 MBq/400 pmol", "value": 2.11, "unit": "Gy"}, {"measurement": "Absorbed dose lungs", "setting": "male, 1× 40 MBq/400 pmol", "value": 0.35, "unit": "Gy"}, {"measurement": "Absorbed dose mammary fat pad", "setting": "male, 1× 40 MBq/400 pmol", "value": 0.27, "unit": "Gy"}, {"measurement": "Absorbed dose osteogenic cells", "setting": "male, 1× 40 MBq/400 pmol", "value": 0.03, "unit": "Gy"}, {"measurement": "Absorbed dose pancreas", "setting": "male, 1× 40 MBq/400 pmol", "value": 2.23, "unit": "Gy"}, {"measurement": "Absorbed dose prostate gland", "setting": "male, 1× 40 MBq/400 pmol", "value": 0.35, "unit": "Gy"}, {"measurement": "Absorbed dose small intestine", "setting": "male, 1× 40 MBq/400 pmol", "value": 0.80, "unit": "Gy"}, {"measurement": "Absorbed dose spleen", "setting": "male, 1× 40 MBq/400 pmol", "value": 0.50, "unit": "Gy"}, {"measurement": "Absorbed dose stomach wall", "setting": "male, 1× 40 MBq/400 pmol", "value": 1.50, "unit": "Gy"}, {"measurement": "Absorbed dose testes", "setting": "male, 1× 40 MBq/400 pmol", "value": 0.02, "unit": "Gy"}, {"measurement": "Absorbed dose total body", "setting": "male, 1× 40 MBq/400 pmol", "value": 0.31, "unit": "Gy"}, {"measurement": "Absorbed dose urinary bladder", "setting": "male, 1× 40 MBq/400 pmol", "value": 0.02, "unit": "Gy"}, {"measurement": "Absorbed dose adrenal glands", "setting": "male, 1× 80 MBq/800 pmol", "value": 0.54, "unit": "Gy"}, {"measurement": "Absorbed dose brain", "setting": "male, 1× 80 MBq/800 pmol", "value": 0.12, "unit": "Gy"}, {"measurement": "Absorbed dose colon wall", "setting": "male, 1× 80 MBq/800 pmol", "value": 1.21, "unit": "Gy"}, {"measurement": "Absorbed dose heart wall", "setting": "male, 1× 80 MBq/800 pmol", "value": 0.46, "unit": "Gy"}, {"measurement": "Absorbed dose kidneys", "setting": "male, 1× 80 MBq/800 pmol", "value": 3.25, "unit": "Gy"}, {"measurement": "Absorbed dose liver", "setting": "male, 1× 80 MBq/800 pmol", "value": 3.28, "unit": "Gy"}, {"measurement": "Absorbed dose lungs", "setting": "male, 1× 80 MBq/800 pmol", "value": 0.87, "unit": "Gy"}, {"measurement": "Absorbed dose mammary fat pad", "setting": "male, 1× 80 MBq/800 pmol", "value": 0.23, "unit": "Gy"}, {"measurement": "Absorbed dose osteogenic cells", "setting": "male, 1× 80 MBq/800 pmol", "value": 0.06, "unit": "Gy"}, {"measurement": "Absorbed dose pancreas", "setting": "male, 1× 80 MBq/800 pmol", "value": 2.31, "unit": "Gy"}, {"measurement": "Absorbed dose prostate gland", "setting": "male, 1× 80 MBq/800 pmol", "value": 0.68, "unit": "Gy"}, {"measurement": "Absorbed dose small intestine", "setting": "male, 1× 80 MBq/800 pmol", "value": 1.21, "unit": "Gy"}, {"measurement": "Absorbed dose spleen", "setting": "male, 1× 80 MBq/800 pmol", "value": 0.72, "unit": "Gy"}, {"measurement": "Absorbed dose stomach wall", "setting": "male, 1× 80 MBq/800 pmol", "value": 1.50, "unit": "Gy"}, {"measurement": "Absorbed dose testes", "setting": "male, 1× 80 MBq/800 pmol", "value": 0.04, "unit": "Gy"}, {"measurement": "Absorbed dose total body", "setting": "male, 1× 80 MBq/800 pmol", "value": 0.47, "unit": "Gy"}, {"measurement": "Absorbed dose urinary bladder", "setting": "male, 1× 80 MBq/800 pmol", "value": 0.04, "unit": "Gy"}, {"measurement": "Absorbed dose adrenal glands", "setting": "male, 1× 120 MBq/1200 pmol", "value": 0.66, "unit": "Gy"}]}
